{
  "source": "paper PMC4944158",
  "target": "GST-RabGAP5 C-terminal aa578-760",
  "test": "pull-down; GST fusion on Glutathione Sepharose beads incubated with supernatants of homogenised synaptosomes of wt and σ1B −/− mouse brains, 4 hours at RT, PBS; Western blot",
  "data": [
    {"substance": "AP-1/σ1A complexes of σ1B −/− mice (from UniProt P22892 1-822; O35643 1-943; P35585 1-423; P61967 1-158)", "values": [
      {"measurement": "percent more AP-1 isolated than from wt extracts", "result": 30, "unit": "%"}
    ]}
  ]
}
